The values that follow come from the nanobody polyreactivity screen of Harvey et al. (2022).

The data set is described as follows: yeast display, Sf9 membrane polyspecificity reagent, FACS + sequencing; frameworks hold sequencing errors. In a few lines: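 Polyreactivity labels are assigned by the sorting gate from which each nanobody was recovered. The gates were low and high (top ~1%), set on anti-HA fluorescence for expression and streptavidin fluorescence for reagent binding. Before sorting, galactose-induced (36–48 hours) yeast display cells were stained for 1 hour at 4 °C with 10% biotinylated, detergent-solubilized Sf9 membrane reagent.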
For “QVQLVESGGGLVQAGGSLRLICAASGRIFKWYVMGWYRQAPGKERELVAAISRSGDSTNYADSVKGRFTISRDNAKNTVYLQMNSLKPEDTAVYYCAVGYRYLKWVDYWGQGTQVTVSS”, the “polyreactivity (PSR sort gate)” value was “high polyreactivity”. For the sequence “QVQLVESGGGLVQAGGSLRLICAASGRIFLGYAMGWYRQAPGKERELVARITLIGGGTNYADSVKGRFTISRDNAKNTVYLQMNSLKPVDTAVYYCAAKSPLRPWWVGAVSGNYWGQGTQVTVSS”, the “polyreactivity (PSR sort gate)” value is on record as “low polyreactivity”. The value for “QVQLVESGGGLVQAGGSLRLICAASGRIFLWNAMGWYRQAPGKEREFVATISWNDAISYYADSVKGRFTISRDNAKNSVYLQMNSLKPEDTAVYYCNVDPKIVLSFGYDYWGQGTQVTVSS” was “low polyreactivity”; that for “QVQLVESGGGLVQAGGSLRLICAASGRIFPSYTMGWYRQAPGKERELVAGITKSGSSTYYADSVKGRFTISRDNAKNTVYLQMNSLKPEDTAVYYCAAVYGNPSYRYGYWGQGTQVTVSS” was “high polyreactivity”; that for “QVQLVESGGGLVQAGGSLRLICAASGRIFRGNAMGWYRQAPGKERELVATISSDGSTNYADSVKGRFTISRDNAKNSVYLQMNSLKPEDTAVYYCAKGFYTITPHGMDYWGQGTQVTVSS” was “low polyreactivity”. The value for “QVQLVESGGGLVQAGGSLRLICAASGRIFRQNAMGWYRQEPGKERELVASISSGGNTYYADSVKGRFTISRDNAKNTVYLEMNSLKPEDTAVYYCAAAKQRYYRWWTTPGYDYWGQGTQVTVSS” was “low polyreactivity”; that for “QVQLVESGGGLVQAGGSLRLICAASGRIFWGNAMGWYRQAPGKERELVAAINSIGGTTYYADSVKGRFTISRDNAKNTVYLQMNSLKPEDTAVYYCAAQTFVYRKELLSRYEYWGQGTQVTVSS” was “high polyreactivity”. The value for “QVQLVESGGGLVQAGGSLRLICAASGRIFWYYAMGWYRQAPGKERELVASITSGGRTKYADSVKGRFTISRDNAKNTVYLQMNSLKPEDTAVYYCAARLLIDYHADWWVAYDYWGQGTQVTVSS” was “low polyreactivity”; that for “QVQLVESGGGLVQAGGSLRLICAASGRIFYVYAMGWYRQAPGKERELVAAITSGGSTYYADSVKGRFTISRDNAKNTVYLQMNSLKPEDTAVYYCAAYNRGRFRPYRFEYWGQGTQVTVSS” was “high polyreactivity”; that for “QVQLVESGGGLVQAGGSLRLICAASGRIIRYYAMGWYRQAPGKERELVAITSSGGRTYYADSVKGRFSISRDNAKNTVYLQMNSLKPEDTAVYYCAVDSHCPGRGERFIRLDYWGQGTQVTVSS” was “low polyreactivity”. Consider “QVQLVESGGGLVQAGGSLRLICAASGRILKYNAMGWYRQAPGKERELVAAISYRGGSTYYADSVKGRFTISRDTAKYTVYLLMNSLKPEDTAVYYCNAGGGILNGPLFDYWGQGTQVTVSS”, for which the “polyreactivity (PSR sort gate)” value is recorded as “low polyreactivity”. “QVQLVESGGGLVQAGGSLRLICAASGRILRYYAMGWYRQAPGKERELVASISRGGSTYYADSVKGRFTISRDNAKNTFYLQMNSLKPEDTAVYYCAKSVTGWRGLWYTPRNYYWGQGTQVTVSS”: the “polyreactivity (PSR sort gate)” value was “high polyreactivity”.

Regarding “QVQLVESGGGLVQAGGSLRLICAASGRILWYYAMGWYRQAPGKERELVAAITSSGRTKYADSVKGRFTISRDNAKNTVYLQMNSLKPEDSAVYYCAARPSQWNYDYRRVYYWGQGTQVTVSS”, the “polyreactivity (PSR sort gate)” value was “high polyreactivity”. Then “QVQLVESGGGLVQAGGSLRLICAASGRNFSGNAMGWYTQAPRKERELVAAISTGGSTNYADSVKGRFTISRDNAKNTVYLHMNSLKQEDTAVYYCAADEWRFPSYAYYYWGQGTQVNVSS”, with “low polyreactivity”; and “QVQLVESGGGLVQAGGSLRLICAASGRTFFYYAMGWYRQAPGKEREFVAAISWSAGSTYYADSVKGRFTISRDNAKITVSLQMNSLKPKDTGVYYCAAARPSGGGFDYWGQGTQVTVSS”, with “high polyreactivity”. The value for “QVQLVESGGGLVQAGGSLRLICAASGRTFGGYAMASYRQAPGKERELVAAITYSGSSTYYADSVKGRFTISRDNAKNTVYLQMNSLKPEDTAVYYCAARGRQTWYNYWGQGTQVTVSS” was “high polyreactivity”.

Take “QVQLVESGGGLVQAGGSLRLICAASGRTFNGYAMGWYRQAPGKERELVAAINASGGRTYYADSVKGRFTISRDNAKNTVYLQMNSLKPEDTAVYYCNARRYHWSVYYYDYWGQGTQVTVSS”: the “polyreactivity (PSR sort gate)” value is on record as “high polyreactivity”.

Consider “QVQLVESGGGLVQAGGSLRLICAASGRTFQYYAMGWYRQARGKERELVAAISWSGGSTYYADSVKGRFTISRDNAKNTVYLQMNSLKAEDNAVYYFAASFRGQIVGYWGQGTQVTVSS”, for which the “polyreactivity (PSR sort gate)” value is on record as “high polyreactivity”. The value for “QVQLVESGGGLVQAGGSLRLICAASGRTFRFYAKGWYRQAPGKERELVAAITSGGSTTYAYSVKGRFTISRDNAKNTVYLQMNSLKPEDTAVYYCNADRARAYDYWGQGTQVTVSS” was “high polyreactivity”.

For “QVQLVESGGGLVQAGGSLRLICAASGRTFRFYTMGWYRQAPGKERELVAGIRQRGGTTYYADSVKGRFTISRDNAKNTVYLQMNSLKPEDTAVYYCAADVYYPFYSPGFDYWGQGTQVTVSS”, the “polyreactivity (PSR sort gate)” value is “high polyreactivity”. “QVQLVESGGGLVQAGGSLRLICAASGRTFYLYAMGWYRQAPGKERELVASITKSGGSTYYADSVKGRFTISRDNAKNTVYLQMNSLKPEDTAVYYCATDGRWRLAGAFTGKRRTYDYWGQGTQVTVSS”: the “polyreactivity (PSR sort gate)” value is “low polyreactivity”. In the case of “QVQLVESGGGLVQAGGSLRLICAASGSIFADYAMGWYRQAPGKERELVAAITGGTSTYYADSVKGRFTISRDNAKNTVYLQMNSLKPEDTAVYYCAAYYYWEFSYYEYDYWGQGSQVTVSS”, the “polyreactivity (PSR sort gate)” value is “low polyreactivity”.

On to “QVQLVESGGGLVQAGGSLRLICAASGSIFAYNAMGWYRQAPGKERELVAAITDSAGSTYYADSVKGRFTISRDNAKNTVYLQMYSLKPEDTAVYYGAKYTTRGVYRYWPKDMDYWGQGTQVTVSS”, for which the “polyreactivity (PSR sort gate)” value was “low polyreactivity”. The value for “QVQLVESGGGLVQAGGSLRLICAASGSIFDPYAMGWYRQAPGKERELVAAITYSAARTYYADSVKGRFTISRDNAKNTVYLQMNSLKPEDTAVYYFNRVVRREAERYDYWGQGTQVTVSS” was “high polyreactivity”; that for “QVQLVESGGGLVQAGGSLRLICAASGSIFEYYAIRLYRQAPGTERELVADITYDGGNTYYADSLKGRFTISRDNAKNTVYLQMNSLKPEDTAVYYCATEYRYWQSDYSTYFPYDYWGQGTQVTVSS” was “low polyreactivity”. For the sequence “QVQLVESGGGLVQAGGSLRLICAASGSIFFYNAMGWYRQAPGKERELVAAITTRGGSTYYADSVKGRFTISRDNAKNTVYLQMNSLKPEDTAVYYCARSSRGKLDYWGQGTQVTVSS”, the “polyreactivity (PSR sort gate)” value was “low polyreactivity”. Then “QVQLVESGGGLVQAGGSLRLICAASGSIFHRYTMGWYRQAPGKERELVAAINYSGSTTHYADSVKGRFTISRDNAKNTVYLQMNSLKPEDTAVYYCAAGSTRWYPTRVRYDYWGQGTQVTVSS”, with “low polyreactivity”; and “QVQLVESGGGLVQAGGSLRLICAASGSIFITYAMGWSRPAPGKERELVAAIRDSGDRTYYADSVKGRFTISRDNAKNTVYLQMNSLKPEDTAVYYCNARWQERLKYDYWGQGTQVTVSS”, with “low polyreactivity”. Take “QVQLVESGGGLVQAGGSLRLICAASGSIFPHYAMGWYRPAPGKERELVAAISRGGSTNYADSVKGRFTISRDNAKNTVYLQMNSLKPEDTAVYYCNALRYYSRFMYAVAYRYDYWGQGTQVTVSS”: the “polyreactivity (PSR sort gate)” value was “high polyreactivity”. “QVQLVESGGGLVQAGGSLRLICAASGSIFTKYAMVWYRQAPGKERELVAAITWSGGRTYYADSVKGRYTISRDNAKNTVYLQMNSLKPEDTAVYYCAAELFRQGYYYWGQGTQVTVSS”: the “polyreactivity (PSR sort gate)” value is given as “high polyreactivity”.
